Biological target: monoclonal antibody NB206-15B6-F8, raised against MMCN-151 antigen
Assay: competitive ELISA on Biotin-… coated plate

## EDIEDGTFSK [synthetic free peptide … (MMCN-151)]
  OD (450-650), signal at full inhibition: 0.5 OD (450-650)
  OD (450-650), signal without inhibition: 2 OD (450-650)
